Assays:
[1] = target: Naegleria fowleri CNNM CBS-pair domain (N. fowleri); assay: ITC; details: enzyme
[2] = target: Drosophila melanogaster CNNM CBS-pair domain, GST-tagged (D. melanogaster); assay: ITC; VP-ITC, 20 °C, 20 mM Hepes pH 7.5, 100 mM NaCl, 5 mM TCEP; GST-CBS-pairs titrated with PRL; single site-binding model
Sequence of Drosophila melanogaster CNNM CBS-pair domain, GST-tagged (D. melanogaster) (A0A0B7P9G0 362-515): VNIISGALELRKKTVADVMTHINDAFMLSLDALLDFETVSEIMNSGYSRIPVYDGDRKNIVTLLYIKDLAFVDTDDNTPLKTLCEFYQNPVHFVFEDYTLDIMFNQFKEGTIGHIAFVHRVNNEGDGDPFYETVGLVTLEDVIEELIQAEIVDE

fold decrease of affinity against wild type [2]	Substance	Ka [1]	Kd [1]
	Naegleria fowleri PRL	688000 M⁻¹	1500 nM
< 2 fold	Drosophila melanogaster PRL C109D (from UniProt O61722 1-176)		
20 fold	Drosophila melanogaster PRL R143E (from UniProt O61722 1-176) (enzyme)		

Reference: publication PMC10040874
